# Assay results reported in article PMC12881670, “Investigation into ligand selectivity and bias at the formyl peptide receptor family” (The Journal of Pharmacology and Experimental Therapeutics, 2025).
# Where no end group is shown, it is not given here. The star is where a group is joined. For = O=C*
# Tests used:
# Assay in all cases: cell-based or functional assay
# [1] = molecular target: T1, FLAG-tagged mouse Fpr1 (Mm_Fpr1) (mouse, UniProt P33766 1-364)
# T1 sequence (looked up): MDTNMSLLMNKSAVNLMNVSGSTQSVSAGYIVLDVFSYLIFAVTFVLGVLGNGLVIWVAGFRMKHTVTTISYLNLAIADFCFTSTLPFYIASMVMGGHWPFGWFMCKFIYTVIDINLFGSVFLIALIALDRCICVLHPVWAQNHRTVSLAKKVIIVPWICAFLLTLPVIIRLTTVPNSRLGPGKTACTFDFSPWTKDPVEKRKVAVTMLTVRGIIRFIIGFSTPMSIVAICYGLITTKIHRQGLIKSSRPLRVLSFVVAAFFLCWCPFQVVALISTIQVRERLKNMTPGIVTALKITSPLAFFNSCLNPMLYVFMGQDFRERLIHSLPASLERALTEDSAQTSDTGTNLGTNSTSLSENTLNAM
# [2] = molecular target: T2, FLAG-tagged human FPR2 (Hs_FPR2) (human, UniProt P25090 1-351)
# T2 sequence (looked up): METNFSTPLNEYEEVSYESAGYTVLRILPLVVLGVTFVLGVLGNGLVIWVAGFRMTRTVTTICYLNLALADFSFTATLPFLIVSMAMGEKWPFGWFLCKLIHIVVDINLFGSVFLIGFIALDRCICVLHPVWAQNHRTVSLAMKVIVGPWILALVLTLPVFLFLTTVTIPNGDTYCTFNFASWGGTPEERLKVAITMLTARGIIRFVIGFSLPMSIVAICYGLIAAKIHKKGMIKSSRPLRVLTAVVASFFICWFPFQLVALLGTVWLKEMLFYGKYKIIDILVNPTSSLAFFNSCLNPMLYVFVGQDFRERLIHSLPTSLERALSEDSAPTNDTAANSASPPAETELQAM
# [3] = molecular target: T2, FLAG-tagged human FPR2 (Hs_FPR2); remark: listed apart in the source
# [4] = molecular target: T3, FLAG-Mm_Fpr2 C-terminally fused to Renilla Luciferase 8 (mouse, UniProt O88536 1-351)
# T3 sequence (looked up): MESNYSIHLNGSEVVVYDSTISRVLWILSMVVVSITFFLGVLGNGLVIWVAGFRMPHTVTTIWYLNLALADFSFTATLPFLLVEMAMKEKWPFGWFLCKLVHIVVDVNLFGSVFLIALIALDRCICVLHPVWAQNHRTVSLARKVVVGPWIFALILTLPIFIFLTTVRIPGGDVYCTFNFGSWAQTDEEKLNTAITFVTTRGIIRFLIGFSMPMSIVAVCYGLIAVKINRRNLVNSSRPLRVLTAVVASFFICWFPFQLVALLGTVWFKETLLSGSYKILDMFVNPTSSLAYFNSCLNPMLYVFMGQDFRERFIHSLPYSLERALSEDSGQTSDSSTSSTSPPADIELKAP
# [5] = molecular target: T4, FLAG-Hs_FPR2 C-terminally fused to Renilla Luciferase 8 (human, UniProt P25090 1-351)
# T4 sequence (looked up): T2 sequence (looked up)
# [6] = molecular target: T3, FLAG-Mm_Fpr2 C-terminally fused to …; remark: listed apart in the source
# [7] = molecular target: T4, FLAG-Hs_FPR2 C-terminally fused to …; remark: listed apart in the source
# [8] = molecular target: T5, FLAG-Mm_Fpr1 C-terminally fused to Renilla Luciferase 8 (mouse, UniProt P33766 1-364)
# T5 sequence (looked up): T1 sequence (looked up)
# [9] = molecular target: T6, FLAG-Hs_FPR1 C-terminally fused to Renilla Luciferase 8 (human, UniProt P21462 1-350)
# T6 sequence (looked up): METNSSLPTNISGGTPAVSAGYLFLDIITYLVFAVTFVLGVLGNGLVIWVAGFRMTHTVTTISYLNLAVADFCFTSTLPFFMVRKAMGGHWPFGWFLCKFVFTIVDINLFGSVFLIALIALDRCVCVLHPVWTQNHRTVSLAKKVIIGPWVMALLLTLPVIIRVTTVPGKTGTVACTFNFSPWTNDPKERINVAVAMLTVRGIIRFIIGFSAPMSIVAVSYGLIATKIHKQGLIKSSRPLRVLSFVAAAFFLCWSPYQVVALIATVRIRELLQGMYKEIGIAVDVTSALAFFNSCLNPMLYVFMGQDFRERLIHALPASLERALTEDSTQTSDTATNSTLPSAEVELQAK
# [10] = molecular target: T5, FLAG-Mm_Fpr1 C-terminally fused to …; remark: listed apart in the source
# [11] = molecular target: T6, FLAG-Hs_FPR1 C-terminally fused to …; remark: listed apart in the source
Binder,BRET of receptor-RLuc8 with Arrestin 3-YFP: Emax (% of 1 μM WKYMVm) [4] [%],BRET of receptor-RLuc8 with Arrestin 3-YFP: Log EC50 (M) [4] [log M],BRET of receptor-RLuc8 with Venus-mGsi: Emax (% of 1 μM WKYMVm) [6] [%],BRET of receptor-RLuc8 with Venus-mGsi: Log EC50 (M) [6] [log M],BRET of receptor-RLuc8 with Venus-mGsi: Emax (% of 1 μM WKYMVm) [7] [%],BRET of receptor-RLuc8 with Venus-mGsi: Log EC50 (M) [7] [log M],BRET of receptor-RLuc8 with Venus-mGsi: Emax (% of 1 μM WKYMVm) [8] [%],BRET of receptor-RLuc8 with Venus-mGsi: Log EC50 (M) [8] [log M],other results
For-MTPMRKINPLMKLIN [MCT-2 (Formyl-MTPMRKINPLMKLIN from Cytochrome b)],12.1,-10.3,25,-4.77,44.4,-6.23,-8.19,-7.78,receptor internalization (flow cytometry): Emax (% of 1 μM WKYMVm) [1]: 7.39%; receptor internalization (flow cytometry): Log EC50 (M) [1]: -7.24 log M; receptor internalization (flow cytometry): Emax (% of 1 μM WKYMVm) [2]: 63.3%; receptor internalization (flow cytometry): Log EC50 (M) [2]: -6.87 log M; ERK1/2 phosphorylation (Western blot): Emax (% of 1 μM WKYMVm) [3]: 93.9%; ERK1/2 phosphorylation (Western blot): Log EC50 (M) [3]: -6.72 log M; BRET of receptor-RLuc8 with Arrestin 3-YFP: Emax (% of 1 μM WKYMVm) [5]: 51.8%; BRET of receptor-RLuc8 with Arrestin 3-YFP: Log EC50 (M) [5]: -6.06 log M
For-Met-Leu-Phe [fMet-Leu-Phe (fMLF)],22.7,-4.71,13.2,-4.58,61.7,-4.05,59.3,-4.93,BRET of receptor-RLuc8 with Arrestin 3-YFP: Emax (% of 1 μM WKYMVm) [9]: 97%; BRET of receptor-RLuc8 with Arrestin 3-YFP: Log EC50 (M) [9]: -7.08 log M; BRET of receptor-RLuc8 with Arrestin 3-YFP: Emax (% of 1 μM WKYMVm) [10]: 83.4%; BRET of receptor-RLuc8 with Arrestin 3-YFP: Log EC50 (M) [10]: -4.68 log M; BRET of receptor-RLuc8 with Venus-mGsi: Emax (% of 1 μM WKYMVm) [11]: 115%; BRET of receptor-RLuc8 with Venus-mGsi: Log EC50 (M) [11]: -6.47 log M
